The record followed here is article PMC4109796.

The experiment addresses STAT3 (UniProt P40763). The experiment in a line: co-immunoprecipitation, immunoblot. The following applies: reference: wild-type EZH2; sites S21. (In western blotting, separated proteins are transferred to a membrane and probed.)

Regarding EZH2 (from UniProt Q15910) EZH2 S21A, the “binding against the reference” value was “lost”.
